By Kd is commonly meant the equilibrium constant for the complex coming apart.

The record followed here is the Immune Epitope Database (IEDB).

Targets include HLA-A*03:01; HLA-A*11:01; HLA-A*31:01; HLA-A*33:01; HLA-A*68:01.
Assay in all cases: IEDB peptide-MHC binding, purified MHC/competitive/radioactivity; filed as Kd, often an IC50 or EC50 that approximates it; ≥ and ≤ were set here for values at or beyond the usual limits of such assays
[1] abbreviates: source organism: Vaccinia virus WR.
Where [2] appears, read: source organism: SARS coronavirus Tor2.
[3] abbreviates: source organism: Dengue virus 2 Jamaica/1409/1983.
[4] abbreviates: source organism: Dengue virus 1 Brazil/97-11/1997.
[5] abbreviates: source organism: Dengue virus 4 Philippines/H241/1956.
The mark [6] stands for this setting: source organism: Mammarenavirus machupoense.
Where [7] appears, read: source organism: Vaccinia virus Copenhagen.
Where [8] appears, read: source organism: Dengue virus 3 Martinique/1243/1999.
[9] abbreviates: source organism: Mammarenavirus guanaritoense.

Take FIHMVRCCK: the Kd with HLA-A*03:01 (setting [1]) was 267 nM; with HLA-A*11:01 (setting [1]), 2010 nM; with HLA-A*31:01 (setting [1]), 421 nM; with HLA-A*33:01 (setting [1]), 360 nM; in the assay with HLA-A*68:01 (setting [1]), 6.32 nM.

With GVVFLHVTY, the dissociation constant Kd with HLA-A*03:01 (setting [2]) is 8170 nM; in the assay with HLA-A*11:01 (setting [2]) it was 3400 nM; in the assay with HLA-A*31:01 (setting [2]), 15300 nM; with HLA-A*33:01 (setting [2]), no less than 77700 nM; in the assay with HLA-A*68:01 (setting [2]), no less than 60600 nM.

In the case of KSLNRQTVSR, the Kd came out at 87.2 nM with HLA-A*03:01 (setting [1]); 187 nM with HLA-A*11:01 (setting [1]); 7.78 nM in the assay with HLA-A*31:01 (setting [1]); 1320 nM with HLA-A*33:01 (setting [1]); 7000 nM with HLA-A*68:01 (setting [1]).

Turning to KLGEFGKAK, in the assay with HLA-A*03:01 (setting [3]), the equilibrium dissociation constant (Kd) amounted to 22.1 nM.

As for TTIFAGHLK, the Kd with HLA-A*11:01 (setting [4]) was determined as 30.7 nM; with HLA-A*68:01 (setting [4]), 25.4 nM.

On to FFAYVMNIER, for which the Kd with HLA-A*03:01 (setting [1]) was 1120 nM; with HLA-A*11:01 (setting [1]) it was 10800 nM; in the assay with HLA-A*31:01 (setting [1]), 104 nM; in the assay with HLA-A*33:01 (setting [1]), 15 nM; in the assay with HLA-A*68:01 (setting [1]) it was 3.22 nM.

For the sequence SITPNNLNK, the Kd is 866 nM with HLA-A*03:01 (setting [1]); 25.4 nM in the assay with HLA-A*11:01 (setting [1]); no less than 77900 nM in the assay with HLA-A*31:01 (setting [1]); no less than 77700 nM in the assay with HLA-A*33:01 (setting [1]); 1450 nM with HLA-A*68:01 (setting [1]).

As for VFLILCFTIK, the equilibrium dissociation constant (Kd) turned out to be 168 nM with HLA-A*03:01 (setting [2]); 371 nM with HLA-A*11:01 (setting [2]); 613 nM with HLA-A*31:01 (setting [2]); 4070 nM in the assay with HLA-A*33:01 (setting [2]); 965 nM with HLA-A*68:01 (setting [2]).

Consider EECLRRRVTR, for which the Kd with HLA-A*33:01 (setting [5]) is 779 nM.

Regarding FLMAFANQIH, the equilibrium dissociation constant (Kd) with HLA-A*03:01 (setting [6]) is 11800 nM; with HLA-A*11:01 (setting [6]), no less than 69700 nM; with HLA-A*31:01 (setting [6]), no less than 70000 nM; with HLA-A*33:01 (setting [6]) it was no less than 23800 nM; with HLA-A*68:01 (setting [6]), no less than 31800 nM.

Consider TLSERISSK, for which the dissociation constant Kd turned out to be 6.16 nM in the assay with HLA-A*03:01 (setting [1]); 2.91 nM with HLA-A*11:01 (setting [1]); 2310 nM in the assay with HLA-A*31:01 (setting [1]); 9910 nM in the assay with HLA-A*33:01 (setting [1]); 48.3 nM with HLA-A*68:01 (setting [1]).

As to AQPCSDKAYK, the dissociation constant Kd worked out at 319 nM with HLA-A*03:01 (setting [2]); 67.6 nM with HLA-A*11:01 (setting [2]); 1130 nM with HLA-A*31:01 (setting [2]); 9490 nM with HLA-A*33:01 (setting [2]); 6260 nM in the assay with HLA-A*68:01 (setting [2]).

For DITFLRPVLK, the dissociation constant (Kd) worked out at 157 nM with HLA-A*03:01 (setting [1]); 72.1 nM with HLA-A*11:01 (setting [1]); 259 nM with HLA-A*31:01 (setting [1]); 5840 nM with HLA-A*33:01 (setting [1]); 42.3 nM with HLA-A*68:01 (setting [1]).

Consider FTTNIWMKFR, for which the Kd amounted to 1.57 nM with HLA-A*31:01 (setting [5]), 29.5 nM in the assay with HLA-A*33:01 (setting [5]) and 1.73 nM with HLA-A*68:01 (setting [5]).

On to YVLGIFLRK, for which the dissociation constant Kd with HLA-A*03:01 (setting [5]) was found to be 1.22 nM; with HLA-A*11:01 (setting [5]) it was 9.88 nM.

Consider HAKYMVTDK, for which the Kd is 452 nM with HLA-A*03:01 (setting [1]); 5810 nM with HLA-A*11:01 (setting [1]); 5060 nM in the assay with HLA-A*31:01 (setting [1]); 14300 nM with HLA-A*33:01 (setting [1]); 180 nM in the assay with HLA-A*68:01 (setting [1]).

With KIMSIGFEAR, the Kd with HLA-A*03:01 (setting [1]) is 175 nM; with HLA-A*11:01 (setting [1]), 36.2 nM; with HLA-A*31:01 (setting [1]), 6.06 nM; with HLA-A*33:01 (setting [1]), 562 nM; with HLA-A*68:01 (setting [1]) it was 88.1 nM.

Consider KSFNHVLKRK, for which the Kd with HLA-A*03:01 (setting [2]) is 1.01 nM; in the assay with HLA-A*11:01 (setting [2]) it was 6.18 nM; with HLA-A*31:01 (setting [2]) it was 67.9 nM; with HLA-A*33:01 (setting [2]) it was no less than 70000 nM; in the assay with HLA-A*68:01 (setting [2]), 1570 nM.

With SVLNDILSR, the Kd in the assay with HLA-A*03:01 (setting [2]) turned out to be 7790 nM; with HLA-A*11:01 (setting [2]), 148 nM; with HLA-A*31:01 (setting [2]), 1140 nM; with HLA-A*33:01 (setting [2]) it was 5660 nM; with HLA-A*68:01 (setting [2]), 4270 nM.

For ALLGKKKNPR, the Kd with HLA-A*31:01 (setting [5]) was 357 nM.

Regarding KVIDLGCGR, the equilibrium dissociation constant (Kd) in the assay with HLA-A*31:01 (setting [4]) came to 9210 nM.

On to ECLRRRVTR, for which, in the assay with HLA-A*33:01 (setting [5]), the Kd is 244 nM.

RQDLLVTFK: the Kd with HLA-A*11:01 (setting [4]) was 197 nM.

For the sequence FLSGRGLGK, the equilibrium dissociation constant (Kd) with HLA-A*03:01 (source organism: Dengue virus 1 Nauru/West Pac/1974) came out at 91 nM.

Consider GVTATITPR, for which, in the assay with HLA-A*31:01 (setting [5]), the Kd was determined as 14.9 nM.

On to MLIYSMWGK, for which the Kd with HLA-A*03:01 (setting [7]) worked out at 10.6 nM; in the assay with HLA-A*11:01 (setting [7]) it was 2.63 nM; with HLA-A*31:01 (setting [7]) it was 459 nM; in the assay with HLA-A*33:01 (setting [7]), 2040 nM.

TYLALIATFK: the Kd with HLA-A*33:01 (setting [8]) came to 69.9 nM.

On to ECYVQRFFLR, for which the dissociation constant Kd with HLA-A*03:01 (setting [9]) was determined as 17600 nM; in the assay with HLA-A*31:01 (setting [9]) it was 6 nM; with HLA-A*33:01 (setting [9]), 44.9 nM; with HLA-A*68:01 (setting [9]) it was 279 nM.

Take AINVLRGFRK: the figures for the equilibrium dissociation constant (Kd) with HLA-A*03:01 (setting [3]) and with HLA-A*11:01 (setting [3]) were 91.8 nM and 257 nM, respectively.

For VVKDDPDHYK, the Kd is no less than 40300 nM with HLA-A*31:01 (setting [1]), no less than 70000 nM with HLA-A*33:01 (setting [1]) and no less than 70200 nM with HLA-A*68:01 (setting [1]).

For the sequence ATYLGPQFCK, in the assay with HLA-A*11:01 (source organism: Mammarenavirus lassaense), the Kd came out at 3.25 nM.

For ATLKNVTEVK, the equilibrium dissociation constant (Kd) in the assay with HLA-A*11:01 (setting [5]) turned out to be 279 nM.

Turning to ALAPPVNDLK, in the assay with HLA-A*03:01 (setting [5]), the Kd is 48.1 nM.

Turning to IGQMFETTMR, in the assay with HLA-A*33:01 (setting [3]), the Kd was 1630 nM.

On to MWTLMYFHR, for which the Kd amounted to 7.83 nM in the assay with HLA-A*31:01 (setting [3]) and 1.51 nM with HLA-A*33:01 (setting [3]).

As to ISNMLSIINK, the Kd with HLA-A*03:01 (setting [8]) turned out to be 142 nM; in the assay with HLA-A*11:01 (setting [8]) it was 113 nM.

Take TTSLFLHLV: the equilibrium dissociation constant (Kd) in the assay with HLA-A*03:01 (setting [9]) stood at 15300 nM; with HLA-A*33:01 (setting [9]), 2260 nM.
